Laboratory results published in patent US20140309172.

Columns and labels:
[1] = target: T1, Ac-YVAD-AMC (model substrate, from Enzo, Inc.)
T1 chain: YVAD

[2] = target: alpha-synuclein (wild-type, full-length human α-synuclein)

B1: caspase-1 (ICE), purified, activated (protein)
chain: NPAMPTSSGSEGNVKLCSLEEAQRIWKQKSAEIYPIMDKSSRTRLALIICNEEFDSIPRRTGAEVDITGMTMLLQNLGYSVDVKKNLTASDMTTELEAFAHRPEHKTSDSTFLVFMSHGIREGICGKKHSEQVPDILQLNAIFNMLNTKNCPSLKDKPKVIIIQACRGDSPGVVWFKDSVGVSGNLSLPTTEEFEDDAIKKAHIEKDFIAFCSSTPDNVSWRHPTMGSVFIGRLIEHMQEYACSCDVEEIFRKVRFSFEQPDGRAQMPTTERVTLTRCFYLFPGH
Q: Which results are given for B1?
A: activity against a model substrate [1]: 110 µM/min/mg; cleavage of alpha-synuclein in vitro (SDS-PAGE and western blotting with anti-synuclein antibody) [2]: Purified, activated caspase-1 does indeed cleave alpha-synuclein
